Consider 36 sequences from the supplement of paper PMC12764529.

The nature of series [1]: folding stability dG unfold (combined trypsin and chymotrypsin); higher = more stable. Put shortly:
(§1)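 Designed mini-proteins with no cysteine and under 80 residues were kept only if AlphaFold2 dimer inter-PAE was above 15. In a PA-tagged cDNA display construct, they were digested with trypsin and chymotrypsin and then sequenced. K50 was inferred by Bayesian fitting of counts, and unfolding free energy was derived per protease or combined against a sequence-predicted unfolded-state K50 and a shared folded-state K50.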

A short description of series [2]: folding stability dG unfold from trypsin proteolysis; higher = more stable. Put shortly: as §1
Series [3] in a line: folding stability dG unfold from chymotrypsin proteolysis; higher = more stable. Put shortly:
as §1

± gives the half width of the 95% confidence interval.

As to “SAGDIGRVEARPVPLPGDRPGRVVVVESSVPNLRVLLFRGPEDRWVALVETDGRVEELPLEEALRLLASSAG [r5_157_TrMRF]”, the “folding stability dG unfold” value came out at 2.39 ± 0.076 kcal/mol in series [1], 1.69 ± 0.043 kcal/mol in series [2] and 2.717 ± 0.021 kcal/mol in series [3].
Taken in the same sequence, the figures for “SAGDLLKNLPPEIVEVEEVKTLPDGTKYFLVKVKKDGKERVFVIELDKNGKIVKIEEMSKEEAEKLLKKSAG [r5_73_TrROS_Hall]” were 3.32 ± 0.17 kcal/mol, 1.84 ± 0.088 kcal/mol and 3.74 ± 0.097 kcal/mol.
Turning to “SAGDLSPSDTVDLEVTPVKVGDKWVHEVRVTVTLPDGSSLRSTLRLPPELGPPRRGRLSVPEFVALVAASAG [r5_831_JUSTAS]”, the “folding stability dG unfold” value came out at 2.14 ± 0.11 kcal/mol in series [1], 1.85 ± 0.024 kcal/mol in series [2] and 2.39 ± 0.044 kcal/mol in series [3].
As to “SAGDPDRPLGPVEITVDPEENTLTITFGDLTLTLPLPEGVEATAEVFPDHVVLTVRYPDGTIRTFVFPLSAG [r5_21_TrMRF]”, the “folding stability dG unfold” value in series [1] is 5.06 ± 0.16 kcal/mol; in series [2], 4.14 ± 0.13 kcal/mol; in series [3], 5.09 ± 0.15 kcal/mol.
Turning to “SAGDPRLRVLVVDLEVEGLEELREFVEEHPDVEVLPRPDGRVLLRRVLLVEVEEPEGEEDPDGPTLHPDSAG [r5_129_TrMRF]”, the figures for the “folding stability dG unfold” value in series [1], in series [2] and in series [3] were 1.26 ± 0.13 kcal/mol, 0.966 ± 0.11 kcal/mol and 1.44 ± 0.18 kcal/mol, respectively.
As for “SAGDWELVELRPFRFPNGLEALVAVYRNPADERLVVLTVVREPEGRLVAVALVEFDGDKLVSESVFSPGSAG [r14_828_TrMRF]”, the “folding stability dG unfold” value in series [1] was 3.4 ± 0.12 kcal/mol; in series [2] it was 2.62 ± 0.079 kcal/mol; in series [3] it was 3.755 ± 0.025 kcal/mol.
Taken in the same sequence, the figures for “SAGDWVPIEFTIFFPDPNMTIEEIADSALMNLGLPPEDVTVKIKNIHEQPDPDGRPYYHIEVKIYIPDNSAG [r5_528_TrROS]” were 2.75 ± 0.23 kcal/mol, 1.7 ± 0.13 kcal/mol and 3.17 ± 0.13 kcal/mol.
As for “SAGDWYVVIEIKHPNGRTITFVLRFDSPDELKDEILDNMRDEYGGPPEDMPITDIRVEVFDPKTGKPIWSAG [r5_482_TrROS]”, the “folding stability dG unfold” value was determined as 3.15 ± 0.14 kcal/mol in series [1], 2.65 ± 0.18 kcal/mol in series [2] and 3.36 ± 0.09 kcal/mol in series [3].
The corresponding values for “SAGEDGWHVVKIWIMIPGPAQLDEFLEEHPNVEIWPNPNGYFMVRITIRVPVPPPPPERDPDNGEPEPDSAG [r5_129_TrROS]” are 4.29 ± 0.1 kcal/mol, 3.73 ± 0.11 kcal/mol and 4.66 ± 0.064 kcal/mol.
Taken in the same sequence, the figures for “SAGEEKVEELARELAEELGVTITEVTVTEEGDTVTITVVNEETGERITITVTRNEDGEITVTITVEKLPSAG [r5_888_TrROS_Hall]” were 2.62 ± 0.11 kcal/mol, 2.61 ± 0.28 kcal/mol and 2.53 ± 0.17 kcal/mol.
The corresponding values for “SAGEIEEILIENPETNEVYRITKVETTVELDEDGNLHTTTKVEIEKVEPPPPPEPEVEVEVKPGEKVELSAG [r5_212_TrROS_Hall]” are less than -1 kcal/mol, 0.225 ± 0.068 kcal/mol and -0.00362 ± 0.42 kcal/mol.
Regarding “SAGEIKIKVEEVDPEKPYVRVTIEIKLEPGQSIEEALKKLLKPGVEEAKIVKVEEENGYLKIEILVRRKSAG [r5_227_TrROS_Hall]”, the “folding stability dG unfold” value in series [1] is 4.01 ± 0.27 kcal/mol; in series [2], 3.22 ± 0.14 kcal/mol; in series [3], 4.54 ± 0.28 kcal/mol.
Consider “SAGEIVIPIPFDWEQAPRMAKHLLRRFQQEGKKIRIWVPDAGAVEAIKDALPPNFPIEVEPLKPGEPIPSAG [r5_911_TrROS]”, for which the “folding stability dG unfold” value in series [1] was found to be 0.909 ± 0.14 kcal/mol; in series [2], 0.299 ± 0.34 kcal/mol; in series [3] it was 1.27 ± 0.27 kcal/mol.
The corresponding values for “SAGEKIKEKIKEILKELFPDAEVEIKTLPDGTIIIKLKKDKKIIVIKKTKDGKIKIVKVMTAEELKKLSSAG [r5_852_TrROS_Hall]” are 1.51 ± 0.29 kcal/mol, 2.15 ± 0.079 kcal/mol and 1.01 ± 0.26 kcal/mol.
Taken in the same sequence, the figures for “SAGELEVTVTVRTETRTETREEEERRRREAAPPVRLRVFFPDTGLAVELEFDANGNIVSVKVTELPEDLSAG [r5_342_TrROS_Hall]” were 2.39 ± 0.1 kcal/mol, 1.87 ± 0.11 kcal/mol and 2.67 ± 0.051 kcal/mol.
For “SAGEMVVLRIRVKVPVTEVKFDKETGELTVEKKTVTREITLTVPADSPEARELAEKLRELGFEVEVVEASAG [r5_468_TrROS_Hall]”, the results for the “folding stability dG unfold” value in series [1], in series [2] and in series [3] were 3.43 ± 0.062 kcal/mol, 3.35 ± 0.14 kcal/mol and 3.53 ± 0.042 kcal/mol, respectively.
Turning to “SAGEPIRIKIMIMNPDGKLRPIVEIPIPPDDIKEIEIKDDSIEIELPGDGKTLMFRINNYPIMIQIEDSAGG [r19_408_TrROS]”, the figures for the “folding stability dG unfold” value in series [1], in series [2] and in series [3] were 2.77 ± 0.11 kcal/mol, 2.06 ± 0.029 kcal/mol and 3.2 ± 0.036 kcal/mol, respectively.
The corresponding values for “SAGEPLVPLSEYELDVPGGQKVKIEIYALPDGTVVVRITDSEGNESEITIPRAELEKLSPEEIVARLSSAGG [r19_47_JUSTAS]” are 3.67 ± 0.098 kcal/mol, 3.71 ± 0.14 kcal/mol and 3.57 ± 0.093 kcal/mol.
The corresponding values for “SAGEREELLERAKELARKLAEELGVEVEVTVTVEERDDSVTITVTVTVRNEDGSTHTFTFTFTLKKEDLSAG [r5_609_TrROS_Hall]” are 5.43 ± 0.13 kcal/mol, 3.83 ± 0.14 kcal/mol and 5.55 ± 0.2 kcal/mol.
Taken in the same sequence, the figures for “SAGEVAPEEIRKIAEEIAKKLGLKNVKVEVSRDEETGEITVKIEVDIPESKKEKKEELEKAIKEKLGLKSAG [r5_9_JUSTAS]” were 2.7 ± 0.17 kcal/mol, 1.97 ± 0.084 kcal/mol and 2.96 ± 0.094 kcal/mol.
As to “SAGFDWRTVKFPISPELRDKLKEDGFEIVGTSPNYITITVPVVPPPSPEELEEAEKEGMTWEEARDKASAGG [r19_115_TrROS]”, the “folding stability dG unfold” value in series [1] is -0.0214 ± 0.26 kcal/mol; in series [2] it was -0.0911 ± 0.091 kcal/mol; in series [3] it was -0.652 ± 0.82 kcal/mol.
“SAGFEFPPGQEIEFKVQYTSPMPNPDGGWGPVTETYEITIEIVPVPPIPFKDPAQAEELRQKGLPPDDLSAG [r5_624_TrROS]”: the “folding stability dG unfold” value turned out to be 1.23 ± 0.14 kcal/mol in series [1], 0.546 ± 0.06 kcal/mol in series [2] and 1.44 ± 0.041 kcal/mol in series [3].
The corresponding values for “SAGFKIVDVEPTDGRLEITIPIDKPGDALMFMVPFPNAKITPDPNGKITITIPPGGWYMIMIRLKKDASAGG [r19_227_TrROS]” are 2.6 ± 0.14 kcal/mol, 2.33 ± 0.037 kcal/mol and 2.67 ± 0.091 kcal/mol.
Taken in the same sequence, the figures for “SAGFVPGKLKAVDPNGNEIDVIEIEELPNGKVIAKGKNKTNGFPYIATYDPVSGKVYIILPNGKVIEIGSAG [r5_809_TrMRF]” were 1.55 ± 0.13 kcal/mol, 0.867 ± 0.074 kcal/mol and 1.82 ± 0.12 kcal/mol.
Taken in the same sequence, the figures for “SAGGAEEKIREIAEKLGVKEVLSADEAEKLPPEYPKRIAVVPRPDGSVLVIVRLENGEVLVIEFPVDSAGGS [r16_686_TrMRF]” were 2.15 ± 0.086 kcal/mol, 1.45 ± 0.044 kcal/mol and 2.49 ± 0.035 kcal/mol.
Regarding “SAGGAFAVVDAGDKVITITVYNPDGELVAPAEIPVLDPETGESDALNIPLEELEKLAGVPIELEPAGSAGGS [r16_778_TrMRF]”, the “folding stability dG unfold” value in series [1] was 1.03 ± 0.1 kcal/mol; in series [2] it was 0.977 ± 0.059 kcal/mol; in series [3], 1 ± 0.025 kcal/mol.
Taken in the same sequence, the figures for “SAGGAHEMEWKHEYELPPYRLKVELEWYYDPDGNPQPSIETIEIRPVPPPTIDAEDLPPEQAKENGIASAGG [r13_964_TrROS]” were 1.08 ± 0.38 kcal/mol, 1.13 ± 0.11 kcal/mol and 1.23 ± 0.087 kcal/mol.
Taken in the same sequence, the figures for “SAGGAIELPDLGEEEAIETLKKLAEEGIKNPVGVIRTPTKPLVITYDPETNTVTITLPDGTILTLVVSAGGS [r16_481_JUSTAS]” were 1.52 ± 0.11 kcal/mol, 0.755 ± 0.091 kcal/mol and 1.83 ± 0.028 kcal/mol.
The corresponding values for “SAGGAKELFEAIPGAEAEYDPETGTLRVRFEFPDYTVLVEIPTDKETGEVLGVRVYVIDKDGVPHEIDLSAG [r5_367_TrMRF]” are 4.52 ± 0.23 kcal/mol, 3.26 ± 0.24 kcal/mol and 4.81 ± 0.15 kcal/mol.
For the sequence “SAGGALENAPITVNVTITITLKDEKGNTPVITIPVTATVTSQAEADALVNATAAALEAALGATVTVASAGGS [r8_149_JUSTAS]”, the “folding stability dG unfold” value amounted to 1.95 ± 0.096 kcal/mol in series [1], 1.65 ± 0.12 kcal/mol in series [2] and 2.04 ± 0.14 kcal/mol in series [3].
Taken in the same sequence, the figures for “SAGGAMSSPVGTVTLTSPAGETVTITVYPGKTEVTTRPPDGSVTVTSLADKSVEEVIAELKAEGYEVLSSAG [r5_613_JUSTAS]” were 3.25 ± 0.039 kcal/mol, 4 ± 0.18 kcal/mol and 2.99 ± 0.03 kcal/mol.
Turning to “SAGGAPIEAAPDEEITLTFTLTVRFRGPDGAEGTATFRLTVPVKVEPVPPVPEPRVFRLPDGSEVTLGSAGG [r13_401_TrMRF]”, the “folding stability dG unfold” value worked out at 1.64 ± 0.12 kcal/mol in series [1], 1.48 ± 0.057 kcal/mol in series [2] and 1.66 ± 0.12 kcal/mol in series [3].
Turning to “SAGGAPLPLPPDVPVTLTFTEVTFSLNESGETGYTVSTTTVPVPVEPVPPVPLPVLVVWPDGSAVALLSAGG [r13_401_JUSTAS]”, the entries for the “folding stability dG unfold” value in series [1], in series [2] and in series [3] were 1.89 ± 0.059 kcal/mol, 1.3 ± 0.067 kcal/mol and 2.23 ± 0.051 kcal/mol, respectively.
Take “SAGGAPLSSSEEVEALLKEGGAEFVSKTSVTITEPGVPVTVNVYTIRVKDPSSDKWTLVEVPSSLLSSAGGS [r16_271_JUSTAS]”: the entries for the “folding stability dG unfold” value in series [1], in series [2] and in series [3] were 0.409 ± 0.15 kcal/mol, 0.192 ± 0.12 kcal/mol and 0.429 ± 0.2 kcal/mol, respectively.
The corresponding values for “SAGGAPVGKFKFELNFPELGENVRSVEATVDPVKGTVTVNFELPGSGKPLTLTVPVKLVSPDNPELFSAGGS [r8_193_TrMRF]” are 0.613 ± 0.082 kcal/mol, 0.37 ± 0.059 kcal/mol and 0.759 ± 0.12 kcal/mol.
With “SAGGASVDRELTDPVTGDKIEVTITRLPDGSWLIEVTVTDAEGKTTKYPKTFPPGSYTPEDTIDFTKDSAGG [r13_959_JUSTAS]”, the entries for the “folding stability dG unfold” value in series [1], in series [2] and in series [3] were 2.1 ± 0.16 kcal/mol, 1.92 ± 0.2 kcal/mol and 2.14 ± 0.12 kcal/mol, respectively.
